Columns and labels:
[1] = molecular target: T1, Human Myelin Basic Protein (Homo sapiens, UniProt P02686); assay: Phage display library screening (Example 1, Power BI analysis), binding to Human Myelin Basic Protein; design: Enzo 200-606-M001 from human; purchased Enzo 200-606-M001; host or cells: human brain (tissue-derived); conditions: R3 Myelin Basic Protein, NextGen sequencing count of phage sequences distinct for this target
Excerpt: (§1) Phage display library screens were used to identify peptides that bind to target proteins that are expressed in human nerves and could therefore be useful for systemic in-vivo labeling of nerves during fluorescence assisted surgery. Specifically, m13 phage libraries expressing 7 or 12 random amino acid peptides, or a cyclic peptide CX7C, on the N-terminus of the minor coat protein pIII (New England Biolabs) were processed through multiple rounds of selection for binding to target proteins expressed in peripheral nerve (Table 1).
(§2) The library was processed through up to 4 binding and wash cycles. For selection, phage libraries were incubated for up to 24 hours at 4° C. in 96 well plates that had been coated with one of the target proteins. Plates were then washed with PBS and phage were eluted using 0.2M glycine pH 2.0. Phage supernatants where then neutralized with Tris pH 9.0 prior to plating on TG1 bacteria and LB agar plates. Colonies were counted to determine titer followed by DNA preparation of pools of phage and NextGen sequencing. After rounds of selection, phage were pooled and amplified for iterative selection. Phage that were bound at each round were sequenced. NextGen sequencing of pools after 2, 3 and 4 rounds of selection was used to isolate candidate sequences that were analyzed further to identify those that specifically bound each unique target protein.
(§3) DNA sequences were trimmed of all vector amino acids and imported as a peptide dataset into Power BI. Power BI was used to identify phage display sequences for specific columns (corresponding to each target protein) in order to identify sequences that were distinct for each protein target. The Power BI code evaluated each individual sequence for each protein target against the sequences present in other protein targets in a test for uniqueness. Using the distinct flag, the Power BI code generated a filtered peptide dataset that excluded any peptide sequence that occur in more than one column which identified a specific protein target. This method therefore identified candidate peptide sequences showing selective binding to an individual target protein. Unique sequences in each column were sorted by individual counts such that the most selected sequences appeared at the top of the column.

[2] = molecular target: T1, Human Myelin Basic Protein; assay: Phage display library screening (Example 2, Python script analysis), binding to Human Myelin Basic Protein; design: Enzo 200-606-M001 from human; purchased Enzo 200-606-M001; host or cells: human brain (tissue-derived); conditions: R3 Myelin Basic Protein; combined unique sequence count, Python/R script analysis
How it was run: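 Target protein-coated wells were panned with M13 phage libraries displaying 7- or 12-mer random or cyclic CX7C peptides on pIII, over up to 4 rounds (up to 24 h, 4° C), with glycine pH 2.0 elution. Pools from rounds 2–4 were NextGen-sequenced. Peptides specific to each target were ranked by unique sequence count.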

Human Myelin PLP [3] = assay: Phage display library screening (Example 1, Power BI analysis), binding to Human Myelin PLP; conditions: R3 Myelin PLP, NextGen sequencing count of phage sequences distinct for this target
Excerpt: as §1, §2, §3

Human Myelin PLP [4] = assay: Phage display library screening (Example 2, Python script analysis), binding to Human Myelin PLP; conditions: combined unique sequence count, Python/R script analysis
Method: (§4) Phage display library screens were used to identify peptides that bind to target proteins (including specific laminin trimers) that are expressed in human nerves, as described in Table 3. These screens were also carried out to identify peptides that could bind selectively to nerves versus muscle. Such peptides could therefore be useful for systemic in-vivo labeling of nerves during fluorescence assisted surgery. Specifically, m 13 phage libraries expressing 7 or 12 random amino acid peptides, or a cyclic peptide CX7C, on the N-terminus of the minor coat protein pIII (New England Biolabs; NEB) were processed through multiple rounds of selection for binding to target proteins expressed in nerves, or to excised human nerves, nerve extracts, or muscle, as described further below.
as §2, with “For screening against the specified target proteins in Table 1, including LN211, LN411, LN421, and LN521, the phage” for “The”, “by” for “through”, “TGI” for “TG1”
(§5) Python Script Analysis: For all NEB sequence datasets, a python script was used to translate, trim, and filter the peptide sequences. The script translated the nucleotide sequences, translating amber codons as glutamine in peptide sequences, and then trimmed the end sequences that come from the vector. Secondly, the script combined the unique counts of trimmed peptides with identical sequences. […] Another python script was used to group peptides from different assays according to protein target (Myelin Protein Zero, Myelin Proteolipid Protein, Myelin Basic Protein, and Nidogen-2) and also combine the unique sequence counts for each peptide. An R script was written to merge the peptide sequences from different data files and determine peptides specific for each protein target but absent from different protein binding datasets. Peptide sequences were ranked by unique sequence count.

Human MPZ [5] = molecular target: T2, Human MPZ (Homo sapiens, UniProt P25189); assay: Phage display library screening (Example 1, Power BI analysis), binding to Human MPZ; conditions: R3 Human MPZ, NextGen sequencing count of phage sequences distinct for this target
T2 construct: purchased Novoprotein (lysate); Bon Opus Biosciences (recombinant protein) NBL1 1321 (lysate); no catalogue number printed for the Bon Opus protein
T2 sequence (P25189 30-248): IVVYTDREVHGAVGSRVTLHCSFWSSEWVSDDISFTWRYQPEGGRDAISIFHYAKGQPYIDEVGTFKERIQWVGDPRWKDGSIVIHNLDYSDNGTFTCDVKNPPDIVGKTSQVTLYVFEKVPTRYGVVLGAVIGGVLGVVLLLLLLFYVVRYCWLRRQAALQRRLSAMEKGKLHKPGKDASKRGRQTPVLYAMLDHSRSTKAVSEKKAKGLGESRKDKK
Excerpt: as §1, §2, §3

Human MPZ [6] = assay: Phage display library screening (Example 2, Python script analysis), binding to Human MPZ; conditions: combined unique sequence count, Python/R script analysis
Method: as §4
as §2, with “For screening against the specified target proteins in Table 1, including LN211, LN411, LN421, and LN521, the phage” for “The”, “by” for “through”, “TGI” for “TG1”
as §5

Human Myelin PLP (human) [7] = molecular target: Human Myelin PLP (human) (UniProt P60201); assay: phage display, NGS count
Human Myelin PLP (human), sequence (P60201 2-277 limits assumed): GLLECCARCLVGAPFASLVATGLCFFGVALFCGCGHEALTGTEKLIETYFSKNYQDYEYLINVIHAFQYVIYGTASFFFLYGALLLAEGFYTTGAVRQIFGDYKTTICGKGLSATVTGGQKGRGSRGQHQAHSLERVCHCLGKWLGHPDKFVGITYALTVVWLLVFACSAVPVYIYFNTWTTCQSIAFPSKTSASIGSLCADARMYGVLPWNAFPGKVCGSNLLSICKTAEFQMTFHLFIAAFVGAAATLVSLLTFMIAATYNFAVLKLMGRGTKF

Human Myelin PLP (human) [8] = molecular target: Human Myelin PLP (human) (UniProt P60201); assay: phage display R3, NGS count

T1 sequence (P02686 134-304): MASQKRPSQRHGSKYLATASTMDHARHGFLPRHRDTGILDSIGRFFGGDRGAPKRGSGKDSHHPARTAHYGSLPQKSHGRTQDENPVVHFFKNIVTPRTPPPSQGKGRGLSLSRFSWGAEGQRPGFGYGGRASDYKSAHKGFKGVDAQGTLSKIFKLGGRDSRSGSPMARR

## WTMKPNY (R3 Myelin Basic Protein-binding peptide)
[1]
  Count: 13
[2]
  Count: 14

## TNPWKPH (R3 Myelin PLP-binding peptide)
Human Myelin PLP [3]
  Count: 62
Human Myelin PLP [4]
  Count: 62

## EHGYYKV (R3 Myelin Basic Protein-binding peptide)
[1]
  Count: 16
[2]
  Count: 17

## TESLFPH (R3 Human MPZ-binding peptide)
Human MPZ [5]
  Count: 50
Human MPZ [6]
  Count: 52

## GLTPKLF (R3 Human MPZ-binding peptide)
Human MPZ [5]
  Count: 48

## SVLRMLN (R3 Myelin Basic Protein-binding peptide)
[1]
  Count: 16

## QNTGLKW (R3 Myelin Basic Protein-binding peptide)
[1]
  Count: 11
[2]
  Count: 11

## VLTKPMP (R3 Human MPZ-binding peptide)
Human MPZ [5]
  Count: 56
Human MPZ [6]
  Count: 56

## LTHHFAP (R3 Myelin PLP-binding peptide)
Human Myelin PLP [3]
  Count: 40
Human Myelin PLP [4]
  Count: 40

## LRPISHE (R3 Myelin Basic Protein-binding peptide)
[1]
  Count: 12

## GPFLFTV (R3 Myelin PLP-binding peptide)
Human Myelin PLP [3]
  Count: 47

## AITSRNA (R3 Myelin Basic Protein-binding peptide)
[1]
  Count: 15

## HQGSRTY (R3 Myelin PLP-binding peptide)
Human Myelin PLP [3]
  Count: 53
Human Myelin PLP [4]
  Count: 53

## YPKLWTY (R3 Myelin PLP-binding peptide)
Human Myelin PLP [3]
  Count: 35
Human Myelin PLP [4]
  Count: 35

## RVPHSRT (R3 Human MPZ-binding peptide)
Human MPZ [5]
  Count: 49

## DPWVMLR (R3 Myelin Basic Protein-binding peptide)
[1]
  Count: 11
[2]
  Count: 11

## ALPLSAS (R3 Human MPZ-binding peptide)
Human MPZ [5]
  Count: 196
Human MPZ [6]
  Count: 197

## MQTQGRV (R3 Myelin Basic Protein-binding peptide)
[1]
  Count: 12

## EKPSWTR (R3 Myelin PLP-binding peptide)
Human Myelin PLP [3]
  Count: 33
Human Myelin PLP [4]
  Count: 33

## HPSTWHK (R3 Myelin Basic Protein-binding peptide)
[1]
  Count: 18

## AGQLMRCANC (R3 Myelin Basic Protein-binding peptide)
[1]
  Count: 12

## ETTRNYG (R3 Human MPZ-binding peptide)
Human MPZ [5]
  Count: 68
Human MPZ [6]
  Count: 69

## WPSISRP (R3 Human MPZ-binding peptide)
Human MPZ [5]
  Count: 57
Human MPZ [6]
  Count: 58

## QIGVLPS (R3 Myelin Basic Protein-binding peptide)
[1]
  Count: 11

## LRFQIPP (R3 Myelin PLP-binding peptide)
Human Myelin PLP [3]
  Count: 44
Human Myelin PLP [4]
  Count: 44

## DGKNTSN (R3 Myelin Basic Protein-binding peptide)
[1]
  Count: 10

## SPDRTSL (R3 Myelin Basic Protein-binding peptide)
[1]
  Count: 12
[2]
  Count: 12

## NPNWRTI (R3 Myelin PLP-binding peptide)
Human Myelin PLP [3]
  Count: 34
Human Myelin PLP [4]
  Count: 34

## DRNSVFW (R3 Human MPZ-binding peptide)
Human MPZ [5]
  Count: 50
Human MPZ [6]
  Count: 50

## LSSPLSL (R3 Human MPZ-binding peptide)
Human MPZ [5]
  Count: 56
Human MPZ [6]
  Count: 56

## ILLPSLN (R3 Myelin Basic Protein-binding peptide)
[1]
  Count: 13

## AGFPPNT (R3 Myelin Basic Protein-binding peptide)
[1]
  Count: 10

## HRLPWHH (R3 Myelin Basic Protein-binding peptide)
[1]
  Count: 10
[2]
  Count: 10

## LALYARM (peptide)
Human Myelin PLP (human) [7]
  Count: 44
Human Myelin PLP (human) [8]
  Count: 44

## YPKLWTY (peptide)
Human Myelin PLP (human) [7]
  Count: 35
Human Myelin PLP (human) [8]
  Count: 35

## SHSPGNK (R3 Human MPZ-binding peptide)
Human MPZ [5]
  Count: 67
Human MPZ [6]
  Count: 79

## NPSHHPR (R3 Myelin PLP-binding peptide)
Human Myelin PLP [3]
  Count: 37
Human Myelin PLP [4]
  Count: 37

## GPLRMAT (R3 Human MPZ-binding peptide)
Human MPZ [5]
  Count: 50
Human MPZ [6]
  Count: 51

## SHLASRP (R3 Human MPZ-binding peptide)
Human MPZ [5]
  Count: 97

## KMAGHTV (R3 Human MPZ-binding peptide)
Human MPZ [5]
  Count: 51
Human MPZ [6]
  Count: 54

## NPNWRTI (peptide)
Human Myelin PLP (human) [7]
  Count: 34
Human Myelin PLP (human) [8]
  Count: 34

## TMASPAK (R3 Human MPZ-binding peptide)
Human MPZ [5]
  Count: 52
Human MPZ [6]
  Count: 58

## SKSDAWR (R3 Myelin Basic Protein-binding peptide)
[1]
  Count: 14

## TSPWELR (R3 Human MPZ-binding peptide)
Human MPZ [5]
  Count: 107
Human MPZ [6]
  Count: 108

## NDTKTPS (R3 Myelin Basic Protein-binding peptide)
[1]
  Count: 19

## FPVVTRN (R3 Myelin PLP-binding peptide)
Human Myelin PLP [3]
  Count: 42

## TNPWKPH (peptide)
Human Myelin PLP (human) [7]
  Count: 62
Human Myelin PLP (human) [8]
  Count: 62

## VLKNNPT (R3 Human MPZ-binding peptide)
Human MPZ [5]
  Count: 86
Human MPZ [6]
  Count: 87

## GDERIVRTLSHN (R3 Human MPZ-binding peptide)
Human MPZ [5]
  Count: 47

## IKPPYTH (R3 Human MPZ-binding peptide)
Human MPZ [5]
  Count: 78
Human MPZ [6]
  Count: 82

## AWSTSSV (R3 Myelin Basic Protein-binding peptide)
[1]
  Count: 12
[2]
  Count: 12

## RHNVEFS (peptide)
Human Myelin PLP (human) [7]
  Count: 42
Human Myelin PLP (human) [8]
  Count: 42

## LPMRILT (R3 Myelin Basic Protein-binding peptide)
[1]
  Count: 16
[2]
  Count: 16

## DPITRLK (R3 Human MPZ-binding peptide)
Human MPZ [5]
  Count: 92
Human MPZ [6]
  Count: 93

## MTPHTSC (R3 Myelin PLP-binding peptide)
Human Myelin PLP [3]
  Count: 62

## DTSRTME (peptide)
Human Myelin PLP (human) [7]
  Count: 33
Human Myelin PLP (human) [8]
  Count: 33

## SAHAKHH (R3 Human MPZ-binding peptide)
Human MPZ [5]
  Count: 51
Human MPZ [6]
  Count: 52
